The assay concerns the target T1, PODXL on the surface of hESCs (human, UniProt O00592 23-558, glycosylated (sites not given)).
T1 construct: also called human embryonic stem cells
T1 sequence: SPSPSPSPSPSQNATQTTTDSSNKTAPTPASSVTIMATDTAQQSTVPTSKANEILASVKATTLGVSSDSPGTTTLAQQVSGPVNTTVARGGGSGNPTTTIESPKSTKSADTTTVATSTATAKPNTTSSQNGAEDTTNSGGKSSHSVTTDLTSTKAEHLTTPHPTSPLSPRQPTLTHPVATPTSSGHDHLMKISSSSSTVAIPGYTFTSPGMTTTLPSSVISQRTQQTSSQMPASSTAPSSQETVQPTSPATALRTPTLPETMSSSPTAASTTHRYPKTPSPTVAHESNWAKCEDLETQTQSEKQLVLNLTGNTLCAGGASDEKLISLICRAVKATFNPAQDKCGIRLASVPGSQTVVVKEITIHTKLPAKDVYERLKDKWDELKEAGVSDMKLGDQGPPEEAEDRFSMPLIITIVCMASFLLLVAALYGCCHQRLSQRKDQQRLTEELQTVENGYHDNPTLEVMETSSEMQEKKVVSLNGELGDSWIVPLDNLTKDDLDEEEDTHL
Briefly: kinetics of binding to PODXL on the surface of hESCs; method not stated.

The values that follow come from patent publication US20130115627A1 (AGENCY FOR SCIENCE TECHNOLOGY AND RESEARCH, published 2013).

B1: mAb 84 (antibody, V domains shown)
VH: QVQLQQSGGGLVQPGGSMKLSCVASGFTFSNYWMNWVRQSPEKGLEWVAEIRLKSNNYATHYAESVKGRFTISRDDSKSSVYLQMNNLRAEDTGIYYCTGERAWGQGTTVTVSS
VL: DIELTQSPAIMSASPGEKVTMTCSASSSVNYMYWYQQKPGSSPRLLIYDTSNLASGVPVRFSGSGSGTSYSLTISRMEAEDAATYYCQQWSSYPYTFGGGTKLEIKR
On to B1, for which binding was put at a Kd of 40 nM, the koff was 0.0029 s⁻¹ and the kon is 71000 M⁻¹ s⁻¹.

The Kd is the concentration at which binding is half-saturated. Read a high Kd as weaker binding. For orientation: koff means the first-order rate constant of dissociation. Higher therefore signals fast dissociation. By kon is commonly meant the second-order rate constant of association.
